# In patent US20260070974A1 (NONA BIOSCIENCES SUZHOU, published 2026):
# “And” between values parts separate entries of the source, which are not always exact repeats. Equal entries are not always repeated.
# T1: human Siglec-4a-his protein (Acrobiosystems, Cat MAG-H52H8) (human, UniProt P20916 20-516)
# T1 construct: Bought protein; not shown: his tag
# T1 sequence (looked up): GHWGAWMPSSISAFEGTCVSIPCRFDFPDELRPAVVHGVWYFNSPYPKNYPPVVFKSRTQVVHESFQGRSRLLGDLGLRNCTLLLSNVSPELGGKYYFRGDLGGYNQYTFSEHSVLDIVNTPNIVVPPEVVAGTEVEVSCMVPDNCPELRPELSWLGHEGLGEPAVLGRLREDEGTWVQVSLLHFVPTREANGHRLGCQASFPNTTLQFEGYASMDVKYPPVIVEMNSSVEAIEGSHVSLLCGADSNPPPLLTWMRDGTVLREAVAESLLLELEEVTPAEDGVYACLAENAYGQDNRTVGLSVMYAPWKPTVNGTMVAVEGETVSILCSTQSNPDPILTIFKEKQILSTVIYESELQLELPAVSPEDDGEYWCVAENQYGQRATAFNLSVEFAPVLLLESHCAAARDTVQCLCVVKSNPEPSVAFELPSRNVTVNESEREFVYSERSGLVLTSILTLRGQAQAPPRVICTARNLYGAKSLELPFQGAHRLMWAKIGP
# T2: cynomolgus monkey Siglec-15 on CHO-K1/cynomolgus monkey Siglec-15 cells (cynomolgus monkey, UniProt Q6ZMC9 20-328 (human entry))
# T2 chain: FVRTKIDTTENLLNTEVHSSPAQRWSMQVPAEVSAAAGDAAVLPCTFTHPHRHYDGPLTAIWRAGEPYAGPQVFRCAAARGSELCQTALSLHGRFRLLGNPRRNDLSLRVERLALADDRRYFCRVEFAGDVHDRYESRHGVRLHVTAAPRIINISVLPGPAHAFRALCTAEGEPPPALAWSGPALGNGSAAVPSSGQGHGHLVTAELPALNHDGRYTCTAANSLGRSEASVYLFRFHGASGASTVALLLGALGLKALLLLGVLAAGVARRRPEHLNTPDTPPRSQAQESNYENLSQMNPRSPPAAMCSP
# B1: PR300066 (Tab) (antibody, human IgG1, kappa, V domains shown)
# VH: QVQLQQPGAELVKPGASVKMSCKASGYTFTSYWITWVIQRPGQGLEWIGDIYCGSDTMHYNEKFKNKATLTVDTSSSTAYMQLSSLTSEDSAVYYCARWWDYGSSYDYFDYWGQGTTLTVSS
# VL: DIKMTQSPSSMYASLGERVTITCKASQDINSYLSWFQQKPGKSPKTLIYRANRLVDGVPSRFSGSGSGQDYSLTISSLEYEDMGIYYCLQYDEFPYTFGGGTKLEIKR
# notes: variable region from clone 5G12 of WO 2018/057735A1, on human IgG1/kappa constant regions; also called 5G12
# B2: PR301285 (antibody, human IgG1, kappa, V domains shown)
# VH: QVQLQESGPGLVKPSETLSLTCTVSGGSMISYYWSWLRQPPGKGLEWIGYIYYSGNTNYNPSLKSRITIAVDTSKNQFSLKLNSVTAADTAVYYCARERELHPYYFDYWGQGTLVTVSS
# VL: DIQLTQSPSFLSASVGDRVTITCRASQGIDNYLAWYQQKPGKAPKVLIYAASTLQSGVPSRFSGSGSGTEFTLTISSLQPEDFATYYCQQLNSYPLTFGGGTKVEIKR
# B3: PR301286 (antibody, human IgG1, kappa, V domains shown)
# VH: QVQLVESGGGVVQPGKSLRLSCAASGFTFSSYGMHWVRQAPGKGLEWVAVIWIDGSNRYYAASVKGRFTISRDNSKNTLYLQMNSLRAEDTAVYYCTRGYGDYAYVMDVWGQGASVTVSS
# VL: DIVMTQSPLSLPVTPGEPASISCRSSQSLLPGNGYNYLDWYLQKPGQSPQLLIYLGSNRASGVPDRFSGSGSGTDFTLKISRVEAEDVGIYYCMQALQSPLTFGGGTKVEIKR
# notes: Parent of the PTM variants PR301286-1, -3, -5, -6, -7
# B4: PR301289 (antibody, human IgG1, kappa, V domains shown)
# VH: QVQLVQSGAEVKKPGASVKVSCRASGYTFTSYDINWVRQATGQGLEWMGWMNPHSGDTGYAQNFQGRVTMTWNTSISTAYMELSSLRSEDTAVYYCARRRVGVYYYGMDVWGQGTTVTVSS
# VL: ENVLTQSPGTLSLSPGERATLSCRASQSVSSSYFGWYQQKPGQAPRLLIYGASSRATGIPDRFSGSGSGTDFTLTISRLEPEDFAVYYCQQYGSSPITFGQGTRLEIKR
# notes: Parent of the PTM variants PR301289-1 and -2
# Target: T1, human Siglec-4a-his protein …
# Assay: ELISA on coated human Siglec-4a-his, antibody at 100 nM and 10 nM, goat anti-human IgG-HRP, OD450
# Description: Human Siglec-15 ECD-his protein (Acrobiosystems, Cat SG5-H52H3), human Siglec-2-his protein (Acrobiosystems, Cat CD2-H52H8), human Siglec-4a-his protein (Acrobiosystems, Cat MAG-H52H8), human Siglec-3-his protein (Acrobiosystems, Cat CD3-H5226), human Siglec-10-his protein (Acrobiosystems, Cat SIO-H52H9), and human PD-L1/B7-H1-his protein (Acrobiosystems, Cat PD1-H5229), each at 1 μg/mL and dissolved in PBS, were each added to an ELISA plate at 100 μL/well for coating and the plate was incubated overnight at 4° C. The ELISA plate was then blocked with PBST (PBS+0.05% Tween 20) containing 2% BSA at 200 μL/well and incubated at 37° C. for 1 h. The ELISA plate was washed 4 times with PBST. The anti-Siglec-15 antibody diluted in a gradient (concentrations: 100 nM and 10 nM) was added to the ELISA plate at 100 μL/well and the plate was incubated at 37° C. for 1 h. The ELISA plate was washed 4 times with PBST. The goat anti-human IgG (H+L)-HRP (1:5000, Jackson, Cat 109-035-088) was added at 100 μL/well and the plate was incubated at 37° C. for 1 h. The ELISA plate was washed 4 times with PBST. The TMB substrate (Biopanda, Cat TMB-S-003) was added at 100 μL/well, and the plate was incubated at room temperature for 5 min, and then the stop buffer (Solarbio, Cat #: C1058) was added at 100 μL/well to stop the reaction.
row,Binder,binding result
1,B1,no binding (tested: 100 nM)
2,B2,no binding (tested: 100 nM)
3,B3,no binding (tested: 100 nM)
4,B4,no binding (tested: 100 nM)

# Target: T3, mouse Siglec-15-his protein (Acrobiosystems, Cat #: SG5-M52H7) (mouse)
# T3 construct: Bought protein; also called mouse Siglec-15 protein
# Assay: ELISA, coated mouse Siglec-15-his
# Description: […] mouse Siglec-15-his protein (Acrobiosystems, Cat #: SG5-M52H7) dissolved in PBS was added to an ELISA plate at 100 μL/well for coating and the plate was incubated overnight at 4° C. The ELISA plate was then blocked with PBST (PBS+0.05% Tween 20) containing 2% BSA at 200 μL/well and incubated at 37° C. for 1 h. The ELISA plate was washed 4 times with PBST. The anti-Siglec-15 antibody diluted in a gradient (5-fold dilution, starting concentration: 6.67 nM) was added to the ELISA plate at 100 μL/well and the plate was incubated at 37° C. for 1 h. The ELISA plate was washed 4 times with PBST. The goat anti-human IgG (H+L)-HRP (1:5000, Jackson, Cat: 109-035-088) was added at 100 μL/well and the plate was incubated at 37° C. for 1 h. The ELISA plate was washed 4 times with PBST. The TMB substrate (Biopanda, Cat: TMB-S-003) was added at 100 μL/well, and the plate was incubated at room temperature for 5 min, and then the stop buffer (Solarbio, Cat #: C1058) was added at 100 μL/well to stop the reaction.
row,Binder,EC50
1,B1,0.019 nM and 0.023 nM
2,B3,0.051 nM
3,B4,0.036 nM

# Target: T2, cynomolgus monkey Siglec-15 on …
# Assay: flow cytometry on CHO-K1/cynomolgus monkey Siglec-15 cells
# Description: cDNAs encoding cynomolgus monkey Siglec-15 (the amino acid sequence of which is set forth in SEQ ID NO: 155) were obtained by gene synthesis and cloned into the expression vector pcDNA3.1, and then the expression vector was transfected into CHO-K1 cells to construct CHO-K1/cynomolgus monkey Siglec-15 cells expressing cynomolgus monkey Siglec-15. CHO-K1/cynomolgus monkey Siglec-15 cells were adjusted to a density of 1×10⁶/mL with PBS, and the cell suspension was added to a 96-well V-bottom plate at 100 µL/well. The 96-well V-bottom plate was centrifuged at 1000 rpm for 5 min and washed once with PBS+2% FBS. The cells were resuspended in 100 μL of antibody diluted in a gradient (5-fold dilution, starting concentration: 500 nM) and incubated at 4° C. for 1 h, and PR300066 and hIgG1 were used as positive control and negative control, respectively. After 1 h, the cells were washed twice with PBS+2% FBS. The cells were incubated with 100 μL of Alexa Fluor 488 goat anti-human IgG (Jackson, Cat #: 109-545-098) at 4° C. for 1 h in the dark and then washed twice with PBS+2% FBS. The cells were then resuspended in 200 μL of PBS+2% FBS. The fluorescence intensity of the cells was analyzed using a BD FACS Canto™ II flow cytometer.
Binder,EC50,Maximum (MFI)
B1,1.5 nM and 2.19 nM,–
B2,0.889 nM,5660 MFI
B3,3.39 nM,5860 MFI
B4,1.36 nM,5420 MFI
